Test results: patent US12427163B2, “Anti-VTCN1 antibodies and antibody drug conjugates” (Bluefin BioMedicine, Inc., priority 2017, dated 2025)
Numbering of substitutions follows the chain as printed.

T1: human VTCN1 protein (Homo sapiens, UniProt Q7Z7D3)
T1 construct: His
T1 sequence (Q7Z7D3 25-282): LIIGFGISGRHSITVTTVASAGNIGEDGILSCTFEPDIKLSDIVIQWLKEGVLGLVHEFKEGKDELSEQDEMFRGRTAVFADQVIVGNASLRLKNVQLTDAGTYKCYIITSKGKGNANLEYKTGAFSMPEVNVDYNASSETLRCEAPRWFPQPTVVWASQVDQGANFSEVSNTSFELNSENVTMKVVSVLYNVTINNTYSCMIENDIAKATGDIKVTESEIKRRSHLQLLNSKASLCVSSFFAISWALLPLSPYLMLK

T2: mouse VTCN1 protein (Mus musculus, UniProt Q7TSP5)
T2 construct: His
T2 sequence (Q7TSP5 25-257): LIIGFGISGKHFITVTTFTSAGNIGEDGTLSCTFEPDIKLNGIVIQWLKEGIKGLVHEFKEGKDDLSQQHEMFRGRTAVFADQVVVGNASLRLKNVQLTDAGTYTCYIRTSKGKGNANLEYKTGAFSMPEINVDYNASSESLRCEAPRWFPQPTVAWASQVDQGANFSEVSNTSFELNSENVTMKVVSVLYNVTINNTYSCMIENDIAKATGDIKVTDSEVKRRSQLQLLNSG

B1: hu6D9_57A3: humanized 6D9 antibody; VH SEQ ID NO: 220, VL SEQ ID NO: 224 (antibody, V domains shown)
VH: QVQLVESGGGVVQPGRSLRLSCAVSGFSLTSYGVQWVRQAPGKGLEWLGVIWSSGSTDYNAAFLSRLTISKDNSKNTVYFQMNSLRAEDTAVYYCARDVTTIVEGFAHWGQGTLVTVSS
VL: DIQMTQSPSSLSASVGDRVTITCKASEKVGTYVSWYQQKPGKAPKLLIYGASNRYTGVPSRFSGSGSGTDFTLTISSLQPEDFATYYCGQTYSYPFTFGQGTKLEIK
B2: hu6D9_66B1: humanized 6D9 antibody; VH SEQ ID NO: 236, VL SEQ ID NO: 224 (antibody, V domains shown)
VH: B1 VH with S28T, L29F, T30S
VL: B1 VL
B3: hu6D9_57A4: humanized 6D9 antibody; VH SEQ ID NO: 228, VL SEQ ID NO: 224 (antibody, V domains shown)
VH: B1 VH with G9P, G49A, N76S
VL: B1 VL
B4: hu6D9_57A5: humanized 6D9 antibody; VH SEQ ID NO: 232, VL SEQ ID NO: 224 (antibody, V domains shown)
VH: B1 VH with G49A
VL: B1 VL
B5: 13H9_44D2: fully human VTCN1 antibody; VH SEQ ID NO: 272, VL SEQ ID NO: 276 (antibody, V domains shown)
VH: QVQLQESGPGLVKPSETLSLTCTVSGGSISSYYWSWIRQPPGKGLEWIGYIYYSGSTNNNPSLKSRVTISVDTSKNQFSLKLISVTAADTAVYYCARVYNNYDWGFDYWGQGTLVTVSS
VL: EIVMTQSPATLSVSPGERATLSCRASQSVSSNLAWYQQKPGQAPRLLIYGASTRATGIPARFSGSGSGTEFTLTIRSLQSEDFAVYYCQQYHNWPLTFGGGTKLEIK
B6: 7G7_44C6: fully human VTCN1 antibody; VH SEQ ID NO: 256, VL SEQ ID NO: 260 (antibody, V domains shown)
VH: QVQLQESGPGLVKPSETLSLTCTVSGGSISHYYWSWIRQPPGKGLEWIGYIYYSGPTNYNPSLKSRVTISVDTSKNQFSLKLSSVTAADTAVYYCARTYYYGSGSFPDAFDIWGQGTMVTVSS
VL: KIVLTQSPATLSLSPGERATLSCRASQSVSSYLAWYQQTPGQAPRLLIYDASNRATGIPARFSVSGSGTDFTLTISSLEPEDFAVYYCQQRSSWPLTFGGGTKLEIK
B7: 6D9-mIgG1: 6D9 antibody converted from a mouse IgG2a to a mouse IgG1 (antibody, V domains shown)
VH: QIQLQQSGPGLVQPSQSLSITCTVSGFSLTSYGVQWIRQSPGKGLEWLGVIWSSGSTDYNAAFLSRLSFSKDNSKSQVFFQMNSLQADDSAIYYCARDVTTIVEGFAHWGQGTLVTVSA
VL: NIVMTQSPKSMSMSVGERVTLSCKASEKVGTYVSWYQQKPEQSPKLLIYGASNRYTGVPDRFTGSGSATDFTLTISSVQVEDLADYHCGQTYSYPFTFGSGTKLEIK
B8: 5A12: mouse anti-human VTCN1 antibody; VH SEQ ID NO: 105, VL SEQ ID NO: 109 (antibody, V domains shown)
VH: B7 VH with I2V, I37V, L64I, F69I, S70N, Q81K, A87P, S90T, V99I, H108Y
VL: B7 VL with N1I, K28N, V80A, T91S
B9: 3G10: mouse anti-human VTCN1 antibody; VH SEQ ID NO: 17, VL SEQ ID NO: 21 (antibody, V domains shown)
VH: QIQLKESGPGLVQPSQSLSITCTVSGFSLTSYGVHWVRQSPGKGLEWLGVIWSGGYTDYNSAFISRLSISKDNSKSQVFFKMNSLQADDTAIYYCARDITTIVEGFAYWGQGTLVTVSA
VL: B7 VL with N1I, V19I, S22N, K28N, R61H, V80A
B10: 7F10: mouse anti-human VTCN1 antibody; VH SEQ ID NO: 137, VL SEQ ID NO: 141 (antibody, V domains shown)
VH: B9 VH with I2V, K5Q, E6Q, V34I, G54S, Y56S, S61A, A87S, Y93H, V103A
VL: B7 VL with K28N, V80A, T91S
B11: 6E2: mouse anti-human VTCN1 antibody; VH SEQ ID NO: 33, VL SEQ ID NO: 37 (antibody, V domains shown)
VH: B9 VH with K5Q, H35Q, Y56S, S61A, T100S, Y108H, A119S
VL: B7 VL with V80A, T91S, S93R
B12: 10D1: mouse anti-human VTCN1 antibody; VH SEQ ID NO: 57, VL SEQ ID NO: 61 (antibody, V domains shown)
VH: QVQLQESGPELVKPGASVKLSCKASGYIFTDYTIHWLKQSPGQGLEWIGWIYPGSGHTHYNDKFKGKATMTADKSSTTAYMQLSSLTSEDSAVFFCARGGESITTVFPLAYWGQGTLVTVSA
VL: DIVMSQSPSSLAVSVGEKVTMSCKSSQSLLYSSDQKNYLAWYQQKPGQSPKLLIYWASTWESGVPDRFIGSGSGTDFTLTVSSVKAEDLAVYYCHQYYSYPPTFGAGTKLEIK

Assays:
[1] = target: T1, human VTCN1 protein; experiment: Affinity to recombinant VTCN1-his by OCTET Red (Protein A biosensors); format: binding; details: for K(off) / k(on): Table 9; for Human K(off) / Human k(on): Table 12; for Kdis (human) / Kon (human): Table 5
Method: (§1) The affinity of antibodies to recombinant VTCN1 was determined on an OCTET™ Red (Pall, ForteBio) instrument. After loading reagents into a 96-well plate, the OCTET™ Red with Protein A-conjugated biosensors was programmed as follows: 30 seconds for baseline #1; 45 seconds to immobilize the antibody; 30 seconds for baseline #2; 300 seconds for association of antibody to recombinant VTCN1-his; and 300 seconds for dissociation of recombinant VTCN1-his from the antibody. Table 5 lists the affinity measured for selected antibodies.

[2] = test system: cynomolgus monkey VTCN1 protein; experiment: Affinity by OCTET, cynomolgus monkey VTCN1; format: binding; details: Table 12
Method: as §1, with “antibody.” for “antibody. Table 5 lists the affinity measured for selected antibodies.”

[3] = target: T2, mouse VTCN1 protein; experiment: Affinity by OCTET, mouse VTCN1; format: binding; details: Table 12
Method: as §1

[4] = test system: KLN205 tumors; experiment: KLN205 syngeneic mouse lung squamous tumor model in DBA2 mice; format: in vivo
Method: For the tumor study. 6-8 week-old female DBA2 mice were implanted subcutaneously in the right flank with 2.5×10^5 mouse lung squamous carcinoma KLN205 cells in 50% matrigel on day 0. Mice were treated with PBS as a vehicle control, a mouse IgG isotype control (10 mg/kg), or anti-VTCN1 6D9 antibody (10 mg/kg) on days 3, 6, 10, 13, 15, 17, 20, and 22 following tumor implantation by intraperitoneal (i.p.) injection. Tumors were measured using an electronic caliper twice a week and tumor volume was calculated using the formula 0.52*length*width*width. Mouse body weight was also measured and recorded.
6-8 week-old female DBA2 mice were implanted subcutaneously in the right flank with 2.5×10^5 mouse lung squamous carcinoma cell KLN205 cells in 50% matrigel on day 0. Tumors were measured on day 7 and mice are randomized to 7 treatment groups. The average size was 50 mm^3. The treatment groups were: PBS vehicle control, mIgG2a isotype control. 6D9, anti-mouse PD1 antibody RMP1-14, 6D9+RMP1-14, anti-mouse CTLA-4 antibody 9D9, and 6D9+9D9. The mice were treated on days 8, 11, 13, 15, 18, 20, 22, and 25. All antibodies were 10 mg/kg by i.p.
To test the activity of the 6D9 and 6D9-mIgG1 antibodies, 6-8 weeks old female DBA2 mice were implanted subcutaneously in the right flank with 0.2 million KLN205 cells in PBS on day 0. Mice were randomized on day 9 into 3 treatment groups, mIgG1 control. 6D9-mIgG1, 6D9-mIgG2a. Mice were treated on days 9, 11, 15, 18, and 22 by i.p. with 200 μg antibodies (10 mg/kg). […] However.

Molecule | K(off) [1] | k(on) [1] | Kdis (human) [1] | Kon (human) [1] | also measured
B1 | 2.27E−03 | 8.21E+04 |  |  | 
B2 | 3.25E−03 | 1.20E+05 |  |  | 
B3 | 2.26E−03 | 6.21E+04 |  |  | 
B4 | 2.89E−03 | 8.14E+04 |  |  | 
B5 |  |  |  |  | Human K(off) [1]: 1.71E−01; Human k(on) [1]: 1.33E+06; cynomolgus monkey k(off) [2]: 1.67E−01; cynomolgus monkey k(on) [2]: 1.16E+06; mouse k(off) [3]: 5.79E−01; mouse k(on) [3]: 2.16E+06
B6 |  |  |  |  | Human K(off) [1]: 1.62E−01; Human k(on) [1]: 8.42E+05; cynomolgus monkey k(off) [2]: 1.50E−01; cynomolgus monkey k(on) [2]: 6.61E+05; Kd [3]: > 500 nM
B7 |  |  |  |  | mouse survival / time to tumor end point 1500 mm^3 ([4]; Example 15): prolonged mouse survival; KLN205 primary tumor growth, isotype comparison ([4]; Example 15, 200 μg (10 mg/kg) i.p. from day 9): inhibit primary tumor growth
B8 |  |  | 1.64 × 10^−3 | 3.93 × 10^5 | 
B9 |  |  | 1.26 × 10^−2 | 1.07 × 10^6 | 
B10 |  |  | 5.94 × 10^−3 | 1.15 × 10^6 | 
B11 |  |  | 7.46 × 10^−3 | 9.41 × 10^5 | 
B12 |  |  | 4.04 × 10^−3 | 9.83 × 10^5 | 
